From the supplement of paper PMC9112550, “Optimization of the antimicrobial peptide Bac7 by deep mutational scanning” (BMC Biology, 2022)

Test system: Escherichia coli TOP10
Assay: shrunken log2 fold change of peptide-encoding DNA abundance (4.5 h post-induction vs induction); higher = less antimicrobial activity (less host growth inhibition)
Details: time post-induction: 4.5 h; library: site-saturation at positions 5, 18, 19, 20
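Also: peptides expressed intracellularly from a pBAD plasmid library in pooled LB shake-flask culture, induced with 0.3% L-arabinose, DNA abundance read by NGS, three biological replicates, DESeq2 with apeglm shrinkage.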

Sequence: RRIRQRPPRLPRPRPRPGQRPRP
- shrunken log2 fold change: 0.0565

Sequence: RRIRQRPPRLPRPRPRPILNPRP
- shrunken log2 fold change: -0.098

Sequence: RRIRPRPPRLPRPRPRPRRSPRP
- shrunken log2 fold change: 0.124

Sequence: RRIRCRPPRLPRPRPRPTWLPRP
- shrunken log2 fold change: -0.227

Sequence: RRIRIRPPRLPRPRPRPQRCPRP
- shrunken log2 fold change: -0.0109

Sequence: RRIRHRPPRLPRPRPRPCFYPRP
- shrunken log2 fold change: -0.356

Sequence: RRIRWRPPRLPRPRPRPVISPRP
- shrunken log2 fold change: -0.0992

Sequence: RRIRYRPPRLPRPRPRPPAPPRP
- shrunken log2 fold change: 0.76

Sequence: RRIRRRPPRLPRPRPRPYPKPRP
- shrunken log2 fold change: -0.0202

Sequence: RRIRYRPPRLPRPRPRPTLSPRP
- shrunken log2 fold change: -0.0535

Sequence: RRIRWRPPRLPRPRPRPNTCPRP
- shrunken log2 fold change: -0.777

Sequence: RRIRERPPRLPRPRPRPYTWPRP
- shrunken log2 fold change: -0.161

Sequence: RRIRARPPRLPRPRPRPFPKPRP
- shrunken log2 fold change: 0.178

Sequence: RRIRGRPPRLPRPRPRPEGGPRP
- shrunken log2 fold change: 1.17

Sequence: RRIRLRPPRLPRPRPRPVMLPRP
- shrunken log2 fold change: -0.495

Sequence: RRIRERPPRLPRPRPRPWGYPRP
- shrunken log2 fold change: -0.279

Sequence: RRIRVRPPRLPRPRPRPRVFPRP
- shrunken log2 fold change: 0.218

Sequence: RRIRARPPRLPRPRPRPDCSPRP
- shrunken log2 fold change: 0.958

Sequence: RRIRNRPPRLPRPRPRPGERPRP
- shrunken log2 fold change: -0.0647

Sequence: RRIRVRPPRLPRPRPRPIPKPRP
- shrunken log2 fold change: -0.131

Sequence: RRIRCRPPRLPRPRPRPSPDPRP
- shrunken log2 fold change: 0.215

Sequence: RRIRRRPPRLPRPRPRPDSHPRP
- shrunken log2 fold change: -0.00863

Sequence: RRIRKRPPRLPRPRPRPAYLPRP
- shrunken log2 fold change: 0.105

Sequence: RRIRFRPPRLPRPRPRPLYFPRP
- shrunken log2 fold change: -0.72

Sequence: RRIRPRPPRLPRPRPRPEWDPRP
- shrunken log2 fold change: 0.269

Sequence: RRIRDRPPRLPRPRPRPIGNPRP
- shrunken log2 fold change: 0.279

Sequence: RRIRDRPPRLPRPRPRPPASPRP
- shrunken log2 fold change: 0.513

Sequence: RRIRDRPPRLPRPRPRPDPWPRP
- shrunken log2 fold change: 0.295

Sequence: RRIRARPPRLPRPRPRPKEWPRP
- shrunken log2 fold change: 1.16

Sequence: RRIRYRPPRLPRPRPRPLYKPRP
- shrunken log2 fold change: -0.229

Sequence: RRIRFRPPRLPRPRPRPYWYPRP
- shrunken log2 fold change: -0.675

Sequence: RRIRPRPPRLPRPRPRPENNPRP
- shrunken log2 fold change: -0.119

Sequence: RRIRPRPPRLPRPRPRPQVIPRP
- shrunken log2 fold change: -0.0452

Sequence: RRIRLRPPRLPRPRPRPRIEPRP
- shrunken log2 fold change: -0.0339

Sequence: RRIRRRPPRLPRPRPRPINIPRP
- shrunken log2 fold change: -0.256

Sequence: RRIRTRPPRLPRPRPRPEHTPRP
- shrunken log2 fold change: -0.174

Sequence: RRIRLRPPRLPRPRPRPMYEPRP
- shrunken log2 fold change: 0.129

Sequence: RRIRKRPPRLPRPRPRPTYVPRP
- shrunken log2 fold change: -0.201

Sequence: RRIRRRPPRLPRPRPRPWKTPRP
- shrunken log2 fold change: 0.00424

Sequence: RRIRFRPPRLPRPRPRPLSLPRP
- shrunken log2 fold change: -0.0575

Sequence: RRIRTRPPRLPRPRPRPVVGPRP
- shrunken log2 fold change: 0.626

Sequence: RRIRERPPRLPRPRPRPNMWPRP
- shrunken log2 fold change: -0.647

Sequence: RRIRSRPPRLPRPRPRPSPYPRP
- shrunken log2 fold change: -0.672

Sequence: RRIRIRPPRLPRPRPRPVKLPRP
- shrunken log2 fold change: -0.0316

Sequence: RRIRIRPPRLPRPRPRPNAFPRP
- shrunken log2 fold change: -0.0665

Sequence: RRIRMRPPRLPRPRPRPSDAPRP
- shrunken log2 fold change: 0.617

Sequence: RRIRKRPPRLPRPRPRPVDSPRP
- shrunken log2 fold change: 0.134

Sequence: RRIRLRPPRLPRPRPRPWGRPRP
- shrunken log2 fold change: -0.0734

Sequence: RRIRVRPPRLPRPRPRPEYMPRP
- shrunken log2 fold change: -0.305

Sequence: RRIRRRPPRLPRPRPRPMSHPRP
- shrunken log2 fold change: 0.142

Sequence: RRIRGRPPRLPRPRPRPYKVPRP
- shrunken log2 fold change: -0.0404

Sequence: RRIRFRPPRLPRPRPRPEYFPRP
- shrunken log2 fold change: 0.186

Sequence: RRIRWRPPRLPRPRPRPGQTPRP
- shrunken log2 fold change: -0.0122

Sequence: RRIRVRPPRLPRPRPRPTIIPRP
- shrunken log2 fold change: -0.479

Sequence: RRIRGRPPRLPRPRPRPVMPPRP
- shrunken log2 fold change: 0.16

Sequence: RRIRHRPPRLPRPRPRPCRCPRP
- shrunken log2 fold change: -0.271

Sequence: RRIRVRPPRLPRPRPRPEIKPRP
- shrunken log2 fold change: -0.107

Sequence: RRIRDRPPRLPRPRPRPQFPPRP
- shrunken log2 fold change: 0.0234

Sequence: RRIRSRPPRLPRPRPRPEGTPRP
- shrunken log2 fold change: 0.123

Sequence: RRIRVRPPRLPRPRPRPHDKPRP
- shrunken log2 fold change: -0.123

Sequence: RRIRNRPPRLPRPRPRPCSKPRP
- shrunken log2 fold change: -0.0508

Sequence: RRIRNRPPRLPRPRPRPNQHPRP
- shrunken log2 fold change: -0.116

Sequence: RRIRTRPPRLPRPRPRPLKQPRP
- shrunken log2 fold change: 0.0283

Sequence: RRIRQRPPRLPRPRPRPITPPRP
- shrunken log2 fold change: -0.0347

Sequence: RRIRQRPPRLPRPRPRPEFHPRP
- shrunken log2 fold change: -0.0296

Sequence: RRIRNRPPRLPRPRPRPNTYPRP
- shrunken log2 fold change: -0.971

Sequence: RRIRIRPPRLPRPRPRPYSFPRP
- shrunken log2 fold change: -0.307

Sequence: RRIRMRPPRLPRPRPRPSHDPRP
- shrunken log2 fold change: 0.0846

Sequence: RRIRPRPPRLPRPRPRPLKWPRP
- shrunken log2 fold change: 0.398

Sequence: RRIRSRPPRLPRPRPRPMFTPRP
- shrunken log2 fold change: -0.374

Sequence: RRIRGRPPRLPRPRPRPPRPPRP
- shrunken log2 fold change: 1.08

Sequence: RRIRWRPPRLPRPRPRPAKPPRP
- shrunken log2 fold change: 0.0169

Sequence: RRIRTRPPRLPRPRPRPKVGPRP
- shrunken log2 fold change: 0.2

Sequence: RRIRSRPPRLPRPRPRPIACPRP
- shrunken log2 fold change: 0.12

Sequence: RRIRWRPPRLPRPRPRPEQHPRP
- shrunken log2 fold change: 0.339

Sequence: RRIRCRPPRLPRPRPRPRLAPRP
- shrunken log2 fold change: 0.559

Sequence: RRIRERPPRLPRPRPRPCWGPRP
- shrunken log2 fold change: 0.0218

Sequence: RRIRHRPPRLPRPRPRPLLFPRP
- shrunken log2 fold change: -0.364

Sequence: RRIRWRPPRLPRPRPRPLHVPRP
- shrunken log2 fold change: 0.407

Sequence: RRIRGRPPRLPRPRPRPMKWPRP
- shrunken log2 fold change: 3.42

Sequence: RRIRVRPPRLPRPRPRPCIMPRP
- shrunken log2 fold change: -0.514

Sequence: RRIRTRPPRLPRPRPRPNMGPRP
- shrunken log2 fold change: -0.0939

Sequence: RRIRYRPPRLPRPRPRPLPAPRP
- shrunken log2 fold change: -0.165

Sequence: RRIRFRPPRLPRPRPRPVIQPRP
- shrunken log2 fold change: -0.414

Sequence: RRIRHRPPRLPRPRPRPWLMPRP
- shrunken log2 fold change: -0.12

Sequence: RRIRKRPPRLPRPRPRPDDLPRP
- shrunken log2 fold change: 0.0928

Sequence: RRIRTRPPRLPRPRPRPFGWPRP
- shrunken log2 fold change: 0.189

Sequence: RRIRWRPPRLPRPRPRPMIWPRP
- shrunken log2 fold change: 0.0116

Sequence: RRIRCRPPRLPRPRPRPQIPPRP
- shrunken log2 fold change: -0.126

Sequence: RRIRMRPPRLPRPRPRPLKPPRP
- shrunken log2 fold change: 0.528

Sequence: RRIRWRPPRLPRPRPRPWMFPRP
- shrunken log2 fold change: 0.00732

Sequence: RRIRNRPPRLPRPRPRPQYMPRP
- shrunken log2 fold change: -1.16

Sequence: RRIRARPPRLPRPRPRPEGTPRP
- shrunken log2 fold change: 0.251

Sequence: RRIRDRPPRLPRPRPRPPMRPRP
- shrunken log2 fold change: 0.759

Sequence: RRIRHRPPRLPRPRPRPSGHPRP
- shrunken log2 fold change: -0.172

Sequence: RRIRRRPPRLPRPRPRPQEEPRP
- shrunken log2 fold change: 0.0332

Sequence: RRIRDRPPRLPRPRPRPDGKPRP
- shrunken log2 fold change: 0.00996

Sequence: RRIRNRPPRLPRPRPRPNNVPRP
- shrunken log2 fold change: -0.943

Sequence: RRIRYRPPRLPRPRPRPFMAPRP
- shrunken log2 fold change: -0.773

Sequence: RRIRYRPPRLPRPRPRPQMRPRP
- shrunken log2 fold change: -0.00174

Sequence: RRIRERPPRLPRPRPRPAACPRP
- shrunken log2 fold change: 0.0165

Sequence: RRIRPRPPRLPRPRPRPLAAPRP
- shrunken log2 fold change: 0.767

Sequence: RRIRKRPPRLPRPRPRPCIWPRP
- shrunken log2 fold change: 0.0573

Sequence: RRIRFRPPRLPRPRPRPSVAPRP
- shrunken log2 fold change: 0.882

Sequence: RRIRARPPRLPRPRPRPAVWPRP
- shrunken log2 fold change: 0.64

Sequence: RRIRHRPPRLPRPRPRPKMCPRP
- shrunken log2 fold change: -0.00195

Sequence: RRIRARPPRLPRPRPRPGIPPRP
- shrunken log2 fold change: 0.162

Sequence: RRIRYRPPRLPRPRPRPKVPPRP
- shrunken log2 fold change: 0.0215

Sequence: RRIRYRPPRLPRPRPRPVARPRP
- shrunken log2 fold change: -0.206
